Laboratory results taken from patent US10391180B2, “Self-assembling complex for targeting chemical agents to cells” (CEDARS-SINAI MEDICAL CENTER, priority 2007, dated 2019).

How the values were obtained:
[1] = HerDox stability under different storage temperatures; type: physicochemical; conditions: up to 12 days
Description: FIGS. 6 (A)-(B) illustrates conjugate stability under different storage conditions, or in serum. As illustrated in FIG. 6 (A), HerDox was incubated up to 12 days at 4° C., RT, or 37° C. Samples were filtered through ultrafiltration spin columns every other day, and retentate and filtrate absorbances measured at 480 nm to determine relative Dox retention or release from conjugates, respectively. As illustrated in FIG. 6 (B), to mimic extended exposure to cells in culture medium, HerDox immobilized on Ni-NTA beads were incubated with bovine serum in DMEM for the indicated times at 37° C. before each sample was pelleted. Absorbance of supernatants (Filtrates) and bead eluates (Retentates) were measured at 480 nm to detect Dox. Relative Dox release or retention in serum is expressed as normalized to control (corresponding sample lacking serum). N=3 per time point.
The inventors tested the stability of HerDox over 12 days under different storage temperatures: 4° C., room temperature, or 37° C. On each day, a sample underwent ultrafiltration, then filtrates and retentates were measured to determine whether any Dox was released from the complex. […] The inventors also examined HerDox stability in serum-containing media at 37° C. […] Dox retention in the conjugate was also assessed by eluting the conjugate from the beads at each time point.

[2] = system: heregulin receptors on MDA-MB-435 (HER2+) cells; assay: Receptor specificity, competition with free heregulin ligand (eHRG); type: cell-based; conditions: eHRG 10× molar excess, HerDox 0.5 uM
Description: FIG. 8 illustrates receptor specificity. MDA-MB-435 (HER2+) cells were incubated with free ligand (eHRG) at 10× molar excess of HerDox for 1 h at 4° C. Media was aspirated to remove free eHRG and fresh media containing HerDox (0.5 uM) was added to cells. Cell survival was measured by MTT assay and represented as a % of relative untreated cell numbers.
The inventors compared the effect of HerDox or Dox alone at equivalent dosages (0.5 uM with respect to Dox concentration) on HER2+ and HER2− breast cancer cells in separate dishes. By three days, HerDox reduced HER2+ cell numbers by over 75% whereas HER2− cell survival was unaffected (FIG. 7). […] These findings emphasize the importance of targeting by showing that the untargeted drug affects nontarget (i.e. HER2−) cells. Importantly, the protein carrier, HerPBK10, alone at the equivalent concentration of protein in HerDox (0.1 uM) had no effect on either cell line (FIG. 7), including a lack of proliferation induction. To test receptor targeting, the inventors used free heregulin ligand (Her or eHRG) as a competitive inhibitor. […] As a final in vitro challenge, the inventors tested whether HerDox induces toxicity specifically to HER2+ cells in a mixed culture of HER2+ and HER2− breast cancer cells. […]

[3] = system: bilateral flank tumors (HER2+); assay: In vivo tumor toxicity, tumor growth; design: species or system mice; conditions: daily tail vein injections, 0.004 mg/kg Dox conc, 7 consecutive days
Description: (§1) FIGS. 12 (A)-(D) illustrates comparison of HerDox and Dox on (A) tumor growth, (B) animal weight, (C) cardiac tissue, and (D) cardiac function.
To assess in vivo tumor toxicity, mice bearing 3-4 week bilateral flank tumors began receiving daily tail vein injections of Dox or HerDox (0.004 mg/kg with respect to Dox conc), HerPBK10 alone (at equivalent protein concentration to HerDox) or saline for 7 consecutive days.

hearts of mice = assay: Cardiac tissue histology and echocardiography; type: in vivo; conditions: treated mice
Excerpt: as §1
At 25 days following injections, tumors and organs were harvested and processed for histochemistry. It is established that Dox can induce acute and long-term cardiotoxicity, therefore, the inventors examined the hearts of mice treated with HerDox or Dox.

[4] = Stability in mouse whole blood; type: in vitro ADME; conditions: 0.12 mg/mL Dox conc, 37° C. up to 1 h, 0.5 mM EDTA
Description: FIG. 13 illustrates stability in mouse whole blood. Freshly collected whole blood was processed by ultrafiltration through 10K MW cutoff membranes after up to 1 h incubation with HerDox or Dox at 37° C. As 0.5 mM EDTA was used as an anticoagulant, HerDox in EDTA alone (-blood) was processed in parallel. Bars represent fluorescence of retained (retentates) or released (filtrates) Dox as a percentage of the total fluorescence of each sample. Scale of Y-axis is adjusted to show presence of filtrate samples. N=3 per treatment.
To assess the feasibility of measuring in vivo stability, the inventors incubated HerDox (at 0.12 mg/mL final Dox conc) or free Dox at equivalent concentration in freshly collected whole blood from mice and incubated the mixtures at 37° C. up to 1 h. As the anticoagulant, 0.5 mM EDTA, was present in the blood collection, parallel samples were incubated at 37° C. in EDTA alone. Samples representing input HerDox (before incubation in blood) were incubated at 37° C. in HEPES-buffered saline. All samples were then centrifuged through 10K MW cutoff filters and Dox fluorescence measured in retentates and filtrates (SpectraMax M2 from Molecular Devices). […] Likewise, there is no appreciable loss of Dox from HerDox retentates from samples incubated in blood compared to those incubated in saline or EDTA alone (FIG. 13).

B1: HerDox: non-covalent complex of HerPBK10, a small double-stranded nucleic acid and intercalated Dox (conjugate)
chain: LPPRLKEMKSQESAAGSKLVLRCETSSEYSSLRFKWFKNGNELNRKNKPQNIKIQKKPGKSELRINKASLADSGEYMCKVISKLGNDSASANITIVESNEIITGMPASTEGAYVSSESPIRISVSTEGANTSSSTSTSTTGTSHLVKCAEKEKTFCVNGGECFMVKDLSNPSRYLCKCQPGFTGARCTENVPMKVQNQEKAEELYMRRAAMYEEGPPPSYESVVSAAPVAAALGSPFDAPLDPPFVPPRYLRPTGGRNSIRYSELAPLFDTTRVYLVDNKSTDVASLNYQNDHSNFLTTVIQNNDYSPGEASTQTINLDDRSHWGGDLKTILHTNMPNVNEFMFTNKFKARVMVSRLPTKDNQVELKYEWVEFTLPEGNYSETMTIDLMNNAIVEHYLKVGRQNGVLESDIGVKFDTRNFRLGFDPVTGLVMPGVYTNEAFHPDIILLPGCGVDFTHSRLSNLLGIRKRQPFQEGFRITYDDLEGGNIPALLDVDAYQASLKDDTEQGGGGAGGSNSSGSGAEENSNAAAAAMQPVEDMNDHAIRGDTFATRAEEKRAEAEAAAEAAAPAAQPEVEKPQKKPVIKPLTEDSKKRSYNLISNDSTFTQYRSWYLAYNYGDPQTGIRSWTLLCTPDVTCGSEQVYWSLPDMMQDPVTFRSTRQISNFPVVGAELLPVHSKSFYNDQAVYSQLIRQFTSLTHVFNRFPENQILARPPAPTITTVSENVPALTDHGTLPLRNSIGGVQRVTITDARRRTCPYVYKALGIVSPRVLSSRTFKKKKKKKKKK
modifications: left off: small tags and cut ends
notes: non-covalent complex of HerPBK10, a small double-stranded nucleic acid and intercalated Dox
[1]; 4° C.
  product remaining intact: 100%
[1]; room temperature and 37° C.
  effect of storage on Dox incorporation: enhance the incorporation of the drug
[2]
  cell killing by HerDox in presence of free heregulin ligand: completely inhibited
[3]
  tumor growth: essentially prevented tumor growth
Hearts of mice
  echocardiogram: stroke volume, cardiac output, left ventricular internal dimension and volume: no effect
[4]
  loss of Dox from the conjugate in whole blood: no detectable loss of Dox
